# Measured values: patent publication US20060252140A1
# Target: hyperactive SB transposase mutant HSB5
# Assay: cell-based or functional assay
substance,measurement,value
E2C/SB-5 fusion protein,integration frequency against cells containing the E2C/SB-5 fusion protein without the limiting amount of HSB5 (142 colonies),4 fold
same,integration frequency against cells expressing the same limiting amount of HSB5 transposase alone (58 colonies),10 fold
